B1: S009-F8-4.5 (antibody, human IgG1, kappa, V domains shown)
VH: QVQLQQPGAELVKPGASVKLSCKASGYTFTIYWMHWVKQRPGQGLEWIGMIHPNSGNTNYNEKFKSKATLTVDKSSSTAYMQLSSLTSEDSAVYYCSLIHWYFDVWGTGTTVTVSS
VL: QIVLTQSPAIMSASPGEKVTMTCSASSSVSYMYWYQQKPGSSPRLLIYDTSNLASGVPVRFSGSGSGTSYSLTISRMEAEDAATYYCQQWSSYPLTFGAGTKLELKR
notes: Human-murine chimeric antibody, human IgG1 heavy and kappa light constant regions
B2: S009-F8-29.1 (antibody, human IgG1, kappa, V domains shown)
VH: QVQLQQSGAELARPGASVKMSCKASGYTFISYTMHWVKQRPGQGLEWIGYINPSSGYTKYNQKFKDKATLTADKSSSTAYMQLNSLTSEDSAVYYCARYYSNPDYYAMDYWGQGTSVTVSS
VL: QIVLTQSPAIMSASPGEKVTITCSASSSVSYMHWFQQKPGTSPKLWIYSTSNLASGVPARFSGSGSGTSYSLTISRMEAEDAATYYCQQRSSYPLTFGGGTKLELKR
notes: as for B1
B3: S009-F8-13.8 (antibody, human IgG1, kappa, V domains shown)
VH: EFQLQQSGPELVKPGASVKISCKASGYSFTDYNMNWVKQTNGKSLEWIGIINPNYGTSSYNQKFKGKATLTVDQSSSTAYMQLNSLTSEDSAVYYCARVGRDNSGFDYWGQGTTLTVSS
VL: QIVLTQSPAIMSASPGEKVTMTCSASSSVSYMYWYQQKPGSSPRLLIYDTSNLASGVPVRFSGSGSGTSYSLTISRMEAEDAATYYCQQWSSYPPTFGSGTELEIKR
notes: as for B1
B4: S009-F8-7.5 (antibody, human IgG1, kappa, V domains shown)
VH: DVQLQESGPGLVKPSQSLSLTCSVTGYSITSGYYWNWIRQFPGNKLEWMAYIRYDGSNNYNPSLKNRISIIRDTSKNQFFLRLNSVTTEDTATYYCAKSYYGMDDWGQGISVTVSS
VL: DIQMTQSPASLSASVGETVTITCRTSGDIHNYLAWYQQKQGKSPQLLVYKAKTLENGVPSRFTGSGSGTQFSLKIDSLQPEDFGTYYCQHFWTTPYTFGGGTKLEIKR
notes: as for B1
B5: S009-F8-27.1 (antibody, human IgG1, kappa, V domains shown)
VH: EVQLVESGGGLVKPGGSLKLSCAASGFTFSSYAMSWVRQTPEKRLEWVATISDGGNYTYYPDNVKGRFTISRDNAKNNLYLQMSHLKSEDTAMYYCAGDRGYPYAMDSWGQGTSVTVSS
VL: NIMMTQSPSSLAVSAGEKVTMSCKSSQSVLYSSNQKNYLAWYQQKPGQSPKLLIYWASTRESGVPDRFTGSGSGTDFTLTISNVHAEDLAVYYCHQYLSSLTFGAGTKLELKR
notes: as for B1
B6: S009-F8-28.23 (antibody, human IgG1, kappa, V domains shown)
VH: EVQLVESGGDLVKPGGSLKLSCAASGFTFSSYAMSWVRQTPEKRLEWVATISDGGSYTYYPDNVEGRFTISRDNAKNNLYLQMSHLKSEDTAMYYCAGDRGYSYALDYWGQGTSVTVSS
VL: NIMMTQSPSSLAVSAGEKVTMSCKSSQSVLYSSNQKNYLAWYQQKPGQSPKLLIYWASTRESGVPDRFTGSGSGTDFTLTISSVQAEDLAVYYCHQYLSSLTFGAGTKLELKR
notes: as for B1
B7: S009-F8-22.23 (antibody, human IgG1, kappa, V domains shown)
VH: QVQLKQSGPGLVQPSQSLSITCTVSGFSLFSYGVHWVRQSPGKGLEWLGVIWSGGSTDYNAAFISRLSISKDNSKSQVFFKMNSLQADDTAMYYCARNGGSMITTLYYAMDYWGQGTSVTVSS
VL: DVVMTQTPLSLPVSLGDQASISCRSSQSLVHSYGNTYLHWYLQKPGQSPKLLIYKVSNRFSGVPDRFSGSGSGTDFTLKISRVEAEDLGVYFCSQSTHIPFTFGGGTKLEIKR
notes: as for B1
B8: S009-F8-5.15 (antibody, human IgG1, kappa, V domains shown)
VH: QVQLQQPGTELVKPGASVKLSCKASGYTFTSYWMHWVKQRPGQGLEWIGHSNPSNGGTNYNEKFKSKATLTVDKSSSTAYMQLSSLTSEDSAVYYCARWVRGSNYEYFDVWGTGTTVTVSS
VL: DIVMTQSQKFMSTTVGDRVSIICKASQNVGSAVAWCQQKPGQSPKLLIYSASNRYTGVPDRFTGSGSGTDFTLTISNMQSEDLADYFCQQYSSYPLTFAGGTKLEIKR
notes: as for B1
B9: S009-F8-24.14 (antibody, human IgG1, kappa, V domains shown)
VH: EFQLQQSGPELVKPGASVKISCKASGYSFTDYNMNWVKLSNGKSLEWIGVIIPNYGTSSYNQKFKGKATLTVDQSSSTAYMQLNSLTSEDSAVYYCARWDNYYGSSLDYWGQGTTLTVSS
VL: DIVMTQSQKFMSTTVGDRVSITCKASQNVGTAVAWYQQKPGQSPKLLIYSASNRYTGVPDRFTGSGSGTDFILTISNMQSEDLADYFCQQYSSYPLTFGAGTKLELKR
notes: as for B1
B10: S009-F8-8.22 (antibody, human IgG1, kappa, V domains shown)
VH: EVQLQQSGPELVKPGASVKMSCKASGYTFTDYIIHWVKQSHGKSLEWIAYIFPNNGGTGYNQKFRGKATLTVNKSSSTAYMELRSLTSEDSAVYYCARWRLRQYFDVWGTGTTVTVSS
VL: DIVMTQSQKFMSTIVGDRVSITCKASQNVGTAVAWYQQKPGQSPKLLIYSASNRYTGVPDRFTGSGSGTDFTLTISNMQSEDLADYFCQQYSSYPLTFGGGTKLEIKR
notes: as for B1
B11: S009-F8-12.13 (antibody, human IgG1, kappa, V domains shown)
VH: QVQLQQPGAELVKPGASVKLSCKASGYTFTSYWMHWVKQRPGQGLEWIGMIHPNSGSTNYNEKFKSKATLTVDKSSSTAYMQLSSLTSEDSAVYYCARRTPIITLVGHWYFDVWGTGTTVTVSS
VL: DIVMTQSHKFMSTSVGDRVSITCKASQDVGTAVAWYQQKPGQSPKLLIYWASTRHTGVPDRFTGSGSGTDFTLTISNVQSEDLADYFCQQYSSYPLTFGAGTKLELKR
notes: as for B1
B12: S009-F8-15.19 (antibody, human IgG1, kappa, V domains shown)
VH: EFQLQQSGPELVKPGASVKISCKASGYSFTDYNMNWVKQSNGKSLEWIGIINPYYGTTSNNQNFKGKATLTVDQSSSTAYMQLNSLTSDDSAVYYCARWLRRDAMDYWGQGTSVTVSS
VL: DIVMTPSHKFMSTSVGDRVSIACKASQDVGSSVAWYQQKPGQSPKLLIYWTSTRHTGVPDRFTGSGSGTDFTLTISNVQSEDLADYFCQQYSSYPWTFGGGTKLEIKR
notes: as for B1
B13: S009-F8-18.9 (antibody, human IgG1, kappa, V domains shown)
VH: EFQLQQSGPELVKPGASVKISCKASGYSFTDYNMNWVKQSNGKSLEWIGIINPNYGTTSYNQKFKGRATLTVDQSSSTAYVQLNSLTSEDSAVYYCARGGYDNEAMDYWGQGTSVTVSS
VL: QIVLTQSPAIMSASPGEKVTMTCSASSSVSYMHWYQQKSGTSPKRWIYDTSKLASGVPARFSGSGSGTSYSLTISSMEAEDAATYYCQQWSSNPPTFGAGTKLELKR
notes: as for B1
B14: S009-F8-19.21 (antibody, human IgG1, kappa, V domains shown)
VH: EFQLQQSGPELVKPGASVKISCKTSGYSFTDYNMNWVKQSNGKSLEWIGVINPNYGTTGYNQKFKGKATLTVDQSSSTAYMQLNSLTSEDSAVYYCARGGYDGEAMDYWGHGTSVTVSS
VL: QIVLTQSPAIMSASPGEKVTMTCSASSSVNYMHWYQQKSGTSPKRWIYDTSKLASGVPARFSGSGSGTSYSLTISSMEAEDAATYYCQQWSSYPPTFGGGTKLEIKR
notes: as for B1

What was measured:
[1] = target: T1, human MSLN-FL-his protein (human, UniProt Q13421 296-580); experiment: ELISA on coated antigen, antibody 1 nM
T1 construct: Made in HEK293E cells, purified on nickel column; it is put last here; also called human MSLN full-length protein; hMSLN-FL-his; not shown: His tag
T1 sequence (Q13421 other isoform, or with tags, fused parts or gaps): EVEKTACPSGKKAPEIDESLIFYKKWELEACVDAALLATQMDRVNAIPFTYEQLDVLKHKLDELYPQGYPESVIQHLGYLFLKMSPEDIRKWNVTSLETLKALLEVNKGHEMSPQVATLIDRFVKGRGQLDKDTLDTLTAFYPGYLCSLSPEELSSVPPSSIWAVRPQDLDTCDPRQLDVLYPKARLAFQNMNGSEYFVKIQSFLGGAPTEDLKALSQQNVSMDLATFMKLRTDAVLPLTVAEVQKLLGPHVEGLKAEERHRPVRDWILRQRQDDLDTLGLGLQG

[2] = target: T1, human MSLN-FL-his protein; experiment: ELISA on coated antigen, antibody 10 nM
Protocol: (§1) The plate was sealed with a plastic film and incubated at 4° C. overnight. The next day, the plate was washed twice with PBST, and a blocking buffer [PBS+2% (w/w) BSA] was added for blocking at room temperature for 2 h. The blocking buffer was discarded, and a chimeric antibody or negative control antibody serially diluted from 100 nM was added at 50 μL/well. After incubation at 37° C. for 2 h, the plate was washed 3 times with PBST. […] After incubation at 37° C. for 2 h, the plate was washed 5 times with PBST. A TMB substrate was added at 50 μL/well for incubation at room temperature for 5-10 min, and then a stop solution (1.0 N HCl) was added at 50 μL/well.

[3] = target: T1, human MSLN-FL-his protein; experiment: ELISA on coated antigen, antibody 0.1 nM
Protocol: as §1

[4] = target: T1, human MSLN-FL-his protein; experiment: ELISA on coated antigen, antibody 100 nM
Protocol: as §1

[5] = target: T1, human MSLN-FL-his protein; experiment: ELISA on coated antigen, antibody 0.01 nM
Protocol: as §1

[6] = target: T1, human MSLN-FL-his protein; experiment: ELISA on coated antigen, antibody 0.001 nM
Protocol: as §1

[7] = target: T1, human MSLN-FL-his protein; experiment: ELISA on coated antigen, antibody 0.0001 nM
Protocol: as §1

[8] = target: T1, human MSLN-FL-his protein; experiment: ELISA on coated antigen, no antibody (blank, column 'none')
Protocol: as §1

| Binder | OD450 [1] | OD450 [2] | OD450 [3] | OD450 [4] | OD450 [5] | OD450 [6] | OD450 [7] | OD450 [8] |
| --- | --- | --- | --- | --- | --- | --- | --- | --- |
| B1 | 2.8 OD | 2.79 OD | 1.31 OD | 2.94 OD | 0.18 OD | 0.1 OD | 0.07 OD | 0.06 OD |
| B2 | 2.9 OD | 3.2 OD | 1.71 OD | 3.07 OD | 0.48 OD | 0.13 OD | 0.07 OD | 0.18 OD |
| B3 | 2.05 OD | 2.34 OD | 1.18 OD | 2.69 OD | 0.24 OD | 0.07 OD | 0.05 OD | 0.05 OD |
| B4 | 2.55 OD | 2.73 OD | 1.88 OD | 3.22 OD | 0.49 OD | 0.12 OD | 0.06 OD | 0.05 OD |
| B5 | 2.23 OD | 2.37 OD | 1.34 OD | 2.5 OD | 0.31 OD | 0.08 OD | 0.05 OD | 0.04 OD |
| B6 | 2.63 OD | 3.13 OD | 1.04 OD | 3 OD | 0.24 OD | 0.08 OD | 0.05 OD | 0.05 OD |
| B7 | 2.49 OD | 2.88 OD | 1.71 OD | 2.9 OD | 0.92 OD | 0.44 OD | 0.29 OD | 0.04 OD |
| B8 | 2.51 OD | 2.75 OD | 1.53 OD | 3.16 OD | 0.34 OD | 0.08 OD | 0.05 OD | 0.05 OD |
| B9 | 2.77 OD | 2.98 OD | 2.02 OD | 2.91 OD | 0.75 OD | 0.18 OD | 0.1 OD | 0.06 OD |
| B10 | 2.75 OD | 3.15 OD | 1.97 OD | 3.15 OD | 0.91 OD | 0.23 OD | 0.1 OD | 0.05 OD |
| B11 | 2.42 OD | 2.53 OD | 2.22 OD | 2.94 OD | 1.26 OD | 0.49 OD | 0.32 OD | 0.05 OD |
| B12 | 2.23 OD | 2.47 OD | 1.11 OD | 2.64 OD | 0.24 OD | 0.08 OD | 0.05 OD | 0.05 OD |
| B13 | 2.29 OD | 2.39 OD | 1.93 OD | 2.42 OD | 0.71 OD | 0.15 OD | 0.06 OD | 0.05 OD |
| B14 | 2.05 OD | 2.32 OD | 1.61 OD | 2.37 OD | 0.4 OD | 0.1 OD | 0.06 OD | 0.06 OD |
